Measured values reported in US20210115133A1 (NGM BIOPHARMACEUTICALS, published 2021).
Positions count from the first letter of the chain named.

T1: human beta klotho protein (human, UniProt Q86Z14 53-997, limits assumed)
T1 construct: also called HuKLB; human beta klotho (R&D Systems)
T1 sequence: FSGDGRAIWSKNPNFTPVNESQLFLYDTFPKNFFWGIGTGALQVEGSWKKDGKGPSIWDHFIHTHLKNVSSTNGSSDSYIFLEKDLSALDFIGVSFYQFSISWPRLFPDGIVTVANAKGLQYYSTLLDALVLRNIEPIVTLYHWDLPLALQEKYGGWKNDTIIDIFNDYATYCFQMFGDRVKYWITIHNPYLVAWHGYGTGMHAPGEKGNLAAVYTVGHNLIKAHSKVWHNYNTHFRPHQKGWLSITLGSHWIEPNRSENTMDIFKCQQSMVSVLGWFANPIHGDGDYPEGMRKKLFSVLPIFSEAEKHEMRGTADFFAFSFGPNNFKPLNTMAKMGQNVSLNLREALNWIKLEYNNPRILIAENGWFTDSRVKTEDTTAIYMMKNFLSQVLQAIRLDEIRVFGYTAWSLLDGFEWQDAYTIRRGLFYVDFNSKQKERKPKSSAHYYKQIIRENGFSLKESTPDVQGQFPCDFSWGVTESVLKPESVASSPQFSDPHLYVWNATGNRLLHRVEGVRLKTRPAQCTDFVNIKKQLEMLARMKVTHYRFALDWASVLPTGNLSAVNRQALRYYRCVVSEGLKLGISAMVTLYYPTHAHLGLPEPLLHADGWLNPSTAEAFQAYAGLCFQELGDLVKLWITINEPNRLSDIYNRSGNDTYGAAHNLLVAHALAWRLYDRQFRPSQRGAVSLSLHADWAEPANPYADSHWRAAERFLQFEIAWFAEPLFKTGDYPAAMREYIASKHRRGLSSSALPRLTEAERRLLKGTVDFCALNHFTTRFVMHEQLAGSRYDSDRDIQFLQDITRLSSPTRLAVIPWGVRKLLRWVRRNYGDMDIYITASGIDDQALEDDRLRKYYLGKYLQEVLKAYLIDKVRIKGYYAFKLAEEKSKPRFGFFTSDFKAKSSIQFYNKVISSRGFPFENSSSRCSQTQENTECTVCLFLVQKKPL

T2: human beta klotho expressed on cells (human, UniProt Q86Z14 1-1044)
T2 construct: in the reporter assays HEK293 cells were transfected with a GeneCopoeia human beta klotho plasmid together with human FGFR1c; in the adipocyte assay the beta klotho/FGFR1c is endogenous; also called HuKLB overexpressing cells; huKLB/R1c
T2 sequence: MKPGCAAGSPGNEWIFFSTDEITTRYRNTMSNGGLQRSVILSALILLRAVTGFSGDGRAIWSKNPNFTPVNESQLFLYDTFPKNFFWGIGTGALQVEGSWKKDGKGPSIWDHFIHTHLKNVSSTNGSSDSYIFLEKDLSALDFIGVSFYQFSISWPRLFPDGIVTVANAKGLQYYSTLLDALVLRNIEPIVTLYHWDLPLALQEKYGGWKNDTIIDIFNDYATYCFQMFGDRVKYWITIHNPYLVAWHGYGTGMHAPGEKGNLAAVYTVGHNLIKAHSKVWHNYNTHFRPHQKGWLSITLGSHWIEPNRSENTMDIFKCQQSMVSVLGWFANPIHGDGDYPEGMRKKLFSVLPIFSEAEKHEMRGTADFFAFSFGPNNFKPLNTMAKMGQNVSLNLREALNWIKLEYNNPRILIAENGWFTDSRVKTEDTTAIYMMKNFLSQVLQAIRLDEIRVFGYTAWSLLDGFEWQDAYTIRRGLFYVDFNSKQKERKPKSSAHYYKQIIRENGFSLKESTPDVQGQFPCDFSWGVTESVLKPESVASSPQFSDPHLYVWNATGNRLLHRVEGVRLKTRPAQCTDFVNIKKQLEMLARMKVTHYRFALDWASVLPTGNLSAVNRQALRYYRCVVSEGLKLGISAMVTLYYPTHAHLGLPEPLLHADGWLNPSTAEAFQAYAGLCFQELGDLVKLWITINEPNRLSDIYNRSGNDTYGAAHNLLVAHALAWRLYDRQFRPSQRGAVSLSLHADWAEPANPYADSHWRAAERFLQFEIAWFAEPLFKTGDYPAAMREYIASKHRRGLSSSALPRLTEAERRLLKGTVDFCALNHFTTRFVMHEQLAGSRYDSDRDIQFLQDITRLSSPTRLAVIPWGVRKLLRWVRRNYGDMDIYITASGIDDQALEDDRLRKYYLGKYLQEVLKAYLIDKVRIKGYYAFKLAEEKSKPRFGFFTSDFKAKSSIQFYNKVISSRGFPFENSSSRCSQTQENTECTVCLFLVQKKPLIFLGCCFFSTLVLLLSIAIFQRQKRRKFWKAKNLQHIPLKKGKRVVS

B1: anti-beta klotho monoclonal antibody 3I13 (antibody, V domains shown)
VH: QVQLQQSGPELVKPGASVKISCKTSGYTFTEYTMHWVKQSHGKSLEWIGSFNPDSGGTSYNQKFKGKATLTVDKSSSTAYMELRSLTSEDSAVYYCARDDGYSTRYWYFDVWGAGTTVTVSS
VL: DIQMTQSPASLSASVGETVTITCGASENIYGALNWFQRKQGKSPQLLIYGATILADGMSSRFSGSGSGRQYSLKISSLHPDDVATYYCQNVLSTPYTFGGGTKLEIK
notes: Murine monoclonal antibody from a hybridoma (captured by anti-mouse Fc); also called 3I13 - Alexa488
B2: anti-beta klotho monoclonal antibody 4A2 (antibody, V domains shown)
VH: B1 VH with Q1E, A16T, H35Y, S50G, D54N, S55Y, T58A, G66D
VL: B1 VL with F36Y, I53N
notes: Murine monoclonal antibody from a hybridoma
B3: anti-beta klotho monoclonal antibody 2J21 (antibody, V domains shown)
VH: B1 VH with Q1E, T33I, S50N, F51I, N52D, D54N, S55T, S77I, Y80F
VL: B1 VL with A9P, F36Y, I53N
notes: as for B2

The binders below were run against T1, human beta klotho protein (assay: Biacore SPR; antibody captured on anti-mouse Fc CM5 chip, beta klotho 1.56-25 nM injected, 25 C).
Method: Binding affinity measurements were also made in additional Biacore based assays. For example, equilibrium dissociation constant (KD) measurements were carried out with purified antibodies to evaluate their binding to human beta klotho and cyno beta klotho. As mentioned above, anti-mouse Fc antibody (Sigma-Aldrich, St. Louis, Mo.) was immobilized on all four flow cells of a CM5 chip using amine coupling reagents (GE Healthcare LifeSciences, Piscataway, N.J.). Purified antibodies were captured (˜100 RUs) on flow cells 2, 3 and 4 using flow cell 1 as a reference. This was followed by injection of different concentrations of human or cyno beta klotho (1.56 nM to 25 nM, two-fold dilutions in PBS-P buffer) at a flow rate of 70 μL/min and the binding kinetics were evaluated at 25° C.

Binder	Kd [nM]
B1	0.4
B2	0.92
B3	4.8

Each binder was assayed against T2, human beta klotho expressed on cells (assay: FACS competition on HuKLB overexpressing cells; cells pre-incubated with the row's antibody, competitor: labelled 3I13-Alexa488).
Method: (§1) For example, for competition binding assays by FACS analysis, antibody standards were prepared that were conjugated to a fluorochrome using either A488 or A647 antibody labeling kit (Invitrogen) following manufacturer's instructions. A dose titration of the conjugated antibody standard was evaluated using HuKLB overexpressing cells. The plateau of the maximal signal of antibody binding is EC=100 and the background signal is EC=0. Competition by FACS against the fluorochrome labeled antibody was performed by pre-incubating HuKLB overexpressing cells with hybridoma supernatants for 15 minutes at room temperature. Without washing, an EC=10 concentration of A488 or A647 labelled antibody standard was added. EC=10 for an individual antibody was determined by 10% of signal using the maximum signal as (100%) and background signal as (0%). After 30 minutes at 4° C., cells are washed and analyzed by FACS. […] A partial competing antibody is one sample that show signal between labelled antibody alone and background. Antibodies that show complete competition against the same standard antibody are considered to be in the same bin.
(§2) In exemplary competition binding experiments by FACS, antibody 3I13 or 9E19 was used as an antibody standard fora positive control (competing antibody) or a negative control (labeled antibody alone), respectively. Representative results are shown in Table 5 below reported as mean fluorescence intensity (MFI).

Binder	Mean Florescence Intensity (MFI)
B1	8.1
B2	9.1
B3	10.2

The binders below were run against T2, human beta klotho expressed on cells (assay: FACS competition on HuKLB overexpressing cells; cells pre-incubated with the row's antibody, competitor: labelled 9E19-Alexa647).
Method: as §1, §2

Binder	Mean Florescence Intensity (MFI)
B1	27.8
B2	28.5
B3	25.7
